Test results as given in publication PMC7373187.

Experiments:
[1] = biological target: His6-GapR_(1–76), truncated GapR lacking the hydrophobic patch of helix H3 (C. crescentus); assay: SEC; Superdex 75 10/300 GL, 1 M NaCl and 1 mM EDTA, proteins separated from copurified DNA; His6-GapR1-89 at 50 μM, His6-GapR1-69 at 125 μM, His6-GapR1-76 at 100 μM (monomer)
[2] = biological target: His6-GapR_(1–76), truncated GapR lacking the hydrophobic patch of helix H3 (C. crescentus); assay: cross-linking; 400 mM EDC plus 100 mM NHS, 2 h, room temperature; proteins at 50 μM (monomer); 1 M NaCl and 1 mM EDTA (no DNA bound); SDS-PAGE, silver stained
[3] = biological target: His6-GapR_(1–69), truncated GapR lacking the entire helix H3 (C. crescentus); assay: SEC; Superdex 75 10/300 GL, 1 M NaCl and 1 mM EDTA, proteins separated from copurified DNA; His6-GapR1-89 at 50 μM, His6-GapR1-69 at 125 μM, His6-GapR1-76 at 100 μM (monomer)
[4] = biological target: His6-GapR_(1–69), truncated GapR lacking the entire helix H3 (C. crescentus); assay: cross-linking; 400 mM EDC plus 100 mM NHS, 2 h, room temperature; proteins at 50 μM (monomer); 1 M NaCl and 1 mM EDTA (no DNA bound); SDS-PAGE, silver stained
[5] = biological target: His6-GapR_(1–89), full-length wild-type GapR of Caulobacter crescentus (C. crescentus); assay: SEC; Superdex 75 10/300 GL, 1 M NaCl and 1 mM EDTA, proteins separated from copurified DNA; His6-GapR1-89 at 50 μM, His6-GapR1-69 at 125 μM, His6-GapR1-76 at 100 μM (monomer)
[6] = biological target: His6-GapR_(1–89), full-length wild-type GapR of Caulobacter crescentus (C. crescentus); assay: cross-linking; 400 mM EDC plus 100 mM NHS, 2 h, room temperature; proteins at 50 μM (monomer); 150 mM NaCl, 10% glycerol, 20 mM HEPES (for tagged and untagged GapR1-89 also 50 mM sodium phosphate); SDS-PAGE, silver stained
[7] = biological target: His6-GapR_(1–89), full-length wild-type GapR of Caulobacter crescentus (C. crescentus); assay: cross-linking; 400 mM EDC plus 100 mM NHS, 2 h, room temperature; proteins at 50 μM (monomer); 1 M NaCl and 1 mM EDTA (no DNA bound); SDS-PAGE, silver stained
[8] = biological target: untagged GapR_(1–89) (C. crescentus); assay: cross-linking; 400 mM EDC plus 100 mM NHS, 2 h, room temperature; proteins at 50 μM (monomer); 150 mM NaCl, 10% glycerol, 20 mM HEPES (for tagged and untagged GapR1-89 also 50 mM sodium phosphate); SDS-PAGE, silver stained

## His6-GapR_(1–76), truncated GapR lacking the hydrophobic patch of helix H3 (domain or fragment)
[1]
  stoichiometry N: 2
[2]
  stoichiometry N: 2

## His6-GapR_(1–69), truncated GapR lacking the entire helix H3 (domain or fragment)
[3]
  stoichiometry N: 2
[4]
  stoichiometry N: 2

## His6-GapR_(1–89), full-length wild-type GapR of Caulobacter crescentus (natural protein)
[5]
  stoichiometry N: 4
[6]
  stoichiometry N: 4
[7]
  stoichiometry N: 4

## untagged GapR_(1–89) (natural protein)
[8]
  stoichiometry N: 4
